# Laboratory results taken from paper PMC6447045 (Nature chemical biology, 2019).
# T1: His-tagged NPAS3 (neuronal PAS domain protein 3) (UniProt Q9QZQ0 56-455)
# T1 sequence (looked up): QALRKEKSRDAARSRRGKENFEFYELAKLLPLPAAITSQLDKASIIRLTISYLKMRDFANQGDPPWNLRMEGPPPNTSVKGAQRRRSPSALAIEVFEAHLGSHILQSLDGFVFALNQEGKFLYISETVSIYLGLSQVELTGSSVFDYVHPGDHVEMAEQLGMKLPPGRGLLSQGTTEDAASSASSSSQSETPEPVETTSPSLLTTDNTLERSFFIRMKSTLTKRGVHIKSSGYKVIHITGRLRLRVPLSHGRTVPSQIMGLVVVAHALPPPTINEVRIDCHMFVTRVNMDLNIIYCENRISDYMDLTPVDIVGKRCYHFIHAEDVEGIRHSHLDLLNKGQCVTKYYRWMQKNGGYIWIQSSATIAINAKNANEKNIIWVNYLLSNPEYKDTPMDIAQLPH
# B1: chimeric ARNT-GFP protein (ARNT residues 82–470 fused to Aequorea GFP) (domain or fragment)
# chain: not shown
# B2: HIF-2α G323E (3–361), His-tagged (domain or fragment)
# chain: not shown
# B3: HIF-2α mutant M252A (3–361), His-tagged (domain or fragment)
# chain: not shown
# B4: mouse HIF-2α bHLH-PAS-A-PAS-B region (3–361), His-tagged (domain or fragment)
# chain: not shown
# B5: His-tagged HIF-1α (domain or fragment)
# chain: not shown
# Columns and labels:
# Assay in all cases: FRET or BRET
# [1] = molecular target: T1, His-tagged NPAS3 (neuronal PAS domain …)
# [2] = molecular target: B1
# [3] = molecular target: ARNT F446L-GFP (ARNT residues 82–470 fused to Aequorea GFP) (mouse, UniProt P53762 82-470, F446L)
# ARNT F446L-GFP (ARNT residues 82–470 fused to Aequorea GFP), sequence (P53762 82-470 F446L): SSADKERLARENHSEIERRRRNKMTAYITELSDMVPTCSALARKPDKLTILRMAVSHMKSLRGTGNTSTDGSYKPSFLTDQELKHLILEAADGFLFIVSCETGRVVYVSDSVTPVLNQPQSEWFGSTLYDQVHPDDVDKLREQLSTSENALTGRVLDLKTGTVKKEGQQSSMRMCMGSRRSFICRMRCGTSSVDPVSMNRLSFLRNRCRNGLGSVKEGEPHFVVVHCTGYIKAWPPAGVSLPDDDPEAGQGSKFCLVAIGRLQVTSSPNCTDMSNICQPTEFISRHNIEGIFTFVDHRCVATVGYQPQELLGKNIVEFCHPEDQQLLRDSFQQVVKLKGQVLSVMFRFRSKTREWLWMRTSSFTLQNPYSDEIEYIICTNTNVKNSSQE
Kd [1],Kd [2],Kd [3],Binder
8.6 nM,,,B1
,~10.5 nM,,B2
,1.4 nM,,B3
,29.1 nM,~0.8 nM,B4
,11.7 nM,,B5
